Reference: patent US20230192896A1 (published 2023)
Numbering of substitutions follows the chain as printed.

T1: FX zymogen (UniProt P00742 41-179; P00742 183-488)
T1 chain 1: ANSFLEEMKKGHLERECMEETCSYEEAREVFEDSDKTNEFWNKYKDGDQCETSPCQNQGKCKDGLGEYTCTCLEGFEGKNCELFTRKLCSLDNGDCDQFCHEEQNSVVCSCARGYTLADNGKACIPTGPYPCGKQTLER
T1 chain 2: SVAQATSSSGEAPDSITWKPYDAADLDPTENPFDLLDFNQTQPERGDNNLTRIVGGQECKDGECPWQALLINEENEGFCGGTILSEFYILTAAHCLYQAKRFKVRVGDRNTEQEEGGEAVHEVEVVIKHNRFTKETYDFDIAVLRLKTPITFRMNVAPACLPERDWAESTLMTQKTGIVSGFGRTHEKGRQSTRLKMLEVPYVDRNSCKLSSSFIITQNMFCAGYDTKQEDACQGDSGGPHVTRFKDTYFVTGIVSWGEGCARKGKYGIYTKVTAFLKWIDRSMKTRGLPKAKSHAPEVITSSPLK

B1: BIIB-12-1307 (antibody, V domains shown)
VH: QVQLQESGPGLVKPSETLSLTCAVSGYSISSGYYWAWIRQPPGKGLEWIGSIYHSGSTYYNPSLKSRVTISVDTSKNQFSLKLSSVTAADTAVYYCARGPLPRSRGLAFDIWGQGTMVTVSS
VL: DIQLTQSPSSLSASVGDRVTITCRASQSISSFLNWYQQKPGKAPKLLIYAASSLQSGVPSRFSGSGSGTDFTLTISSLQPEDFATYYCQQTYSTPLTFGGGTKVEIK
B2: BIIB-12-1300 (antibody, V domains shown)
VH: QVQLVESGGGVVQPGRSLRLSCAASGFTFSSYGMHWVRQAPGKGLEWVAVISYDGSNKYYADSVKGRFTISRDNSKNTLYLQMNSLRAEDTAVYYCARGSKYLHAWGQGTLVTVSS
VL: B1 VL with L4M, L11V, S28G, F32W, N34A, T91A, Y92S, T94F, L96P
B3: BIIB-12-1314 (antibody, V domains shown)
VH: B2 VH with R98K, S100T, K101R, Y102W, L103A, H104G, A105N
VL: B1 VL with L4M, L11V, S28G, F32W, N34A, T91A, Y92N, S93F, T94F, L96I
B4: BIIB-12-908 (antibody, V domains shown)
VH: B2 VH with R98K, S100P, K101R, Y102G, L103M, H104D, A105V, L111T
VL: B1 VL with L11V, S28G, F32W, N34A, A50G, T91G, Y92S, T94L, L96I
B5: BIIB-12-1316 (antibody, V domains shown)
VH: QVQLVESGGGVVQPGRSLRLSCAASGFTFSSYGMHWVRQAPGKGLEWVAVISYDGSNKYYADSVKGRFTISRDNSKNTLYLQMNSLRAEDTAVYYCAKSGQYRAFDIWGQGTMVTVSS
VL: B1 VL with L4M, L11V, S28G, F32W, N34A, T91I, Y92N, S93N, T94F, L96P
B6: BIIB-12-1320 (antibody, V domains shown)
VH: QLQLQESGPGLVKPSETLSLTCTVSGGSISSSSYYWGWIRQPPGKGLEWIGSIYYSGSTYYNPSLKSRVTISVDTSKNQFSLKLSSVTAADTAVYYCARGSGLLVREHYYYYMDVWGKGTTVTVS
VL: B1 VL with L4M, F32Y, T91A, Y92D, S93D, L96W
B7: BIIB-12-924 (antibody, V domains shown)
VH: QVQLVESGGGVVQPGRSLRLSCAASGFTFSSYGMHWVRQAPGKGLEWVAVISYDGSNKYYADSVKGRFTISRDNSKNTLYLQMNSLRAEDTAVYYCAKGKSSERGLNPWGQGTLVTVSS
VL: B1 VL with L4M, L11V, S28G, F32W, N34A, T91G, Y92N, T94F
B8: BIIB-12-907 (antibody, V domains shown)
VH: QVQLQESGPGLVKPSETLSLTCAVSGYSISSGYYWAWIRQPPGKGLEWIGSIYHSGSTYYNPSLKSRVTISVDTSKNQFSLKLSSVTAADTAVYYCARESGMSGAAYWGQGTLVTVSS
VL: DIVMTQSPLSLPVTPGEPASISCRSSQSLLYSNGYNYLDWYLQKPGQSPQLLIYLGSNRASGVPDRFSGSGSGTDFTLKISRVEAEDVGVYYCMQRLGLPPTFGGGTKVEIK
B9: BIIB-12-1303 (antibody, V domains shown)
VH: QVQLVESGGGVVQPGRSLRLSCAASGFTFSSYGMHWVRQAPGKGLEWVAVISYDGSNKYYADSVKGRFTISRDNSKNTLYLQMNSLRAEDTAVYYCARGPTSRLFQHWGQGTLVTVS
VL: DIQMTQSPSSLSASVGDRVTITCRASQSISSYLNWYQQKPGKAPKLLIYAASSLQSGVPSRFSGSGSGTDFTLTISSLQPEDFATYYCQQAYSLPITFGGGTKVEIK
B10: BIIB-12-923 (antibody, V domains shown)
VH: QVQLVQSGAEVKKPGASVKVSCKASGYTFTSYYMHWVRQAPGQGLEWMGIINPSGGSTSYAQKFQGRVTMTRDTSTSTVYMELSSLRSEDTAVYYCARGAGYLQRAFDIWGQGTMVTVSS
VL: DIQMTQSPSTLSASVGDRVTITCRASQSISSWLAWYQQKPGKAPKLLIYKASSLESGVPSRFSGSGSGTEFTLTISSLQPDDFATYYCQQFKSLSFTFGGGTKVEIK
B11: BIIB-12-1321 (antibody, V domains shown)
VH: QVQLVQSGAEVKKPGSSVKVSCKASGGTFSSYAISWVRQAPGQGLEWMGGIIPIFGTANYAQKFQGRVTITADESTSTAYMELSSLRSEDTAVYYCARTPDTSSATDWGQGTLVTVSS
VL: EIVMTQSPATLSLSPGERATLSCRASQSVSSYLAWYQQKPGQAPRLLIYDSSNRATGIPARFSGSGSGTDFTLTISSLEPEDFAVYYCQQFTNLPYTFGGGTKVEIK
B12: BIIB-12-919 (antibody, V domains shown)
VH: QVQLVQSGAEVKKPGASVKVSCKASGYTFTSYYMHWVRQAPGQGLEWMGVINPSGGSTSYAQKFQGRVTMTRDTSTSTVYMELSSLRSEDTAVYYCARGANIAVGRRYADYWGQGTLVTVSS
VL: DIQMTQSPSTLSASVGDRVTITCRASQSISSWLAWYQQKPGKAPKLLIYKASSLESGVPSRFSGSGSGTEFTLTISSLQPDDFATYYCQQVSSYPTFGGGTKVEIK
B13: BIIB-12-932 (antibody, V domains shown)
VH: QVQLVESGGGVVQPGRSLRLSCAASGFTFSSYGMHWVRQAPGKGLEWVAVISYDGSNKYYADSVKGRFTISRDNSKNTLYLQMNSLRAEDTAVYYCARLGYRGASAFDIWGQGTMVTVSS
VL: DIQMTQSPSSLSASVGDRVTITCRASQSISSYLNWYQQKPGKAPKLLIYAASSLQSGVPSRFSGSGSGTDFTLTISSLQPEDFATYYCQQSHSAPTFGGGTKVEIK
B14: BIIB-12-937 (antibody, V domains shown)
VH: QVQLVQSGAEVKKPGASVKVSCKASGYTFTSYYMHWVRQAPGQGLEWMGIINPSGGSTSYAQKFQGRVTMTRDTSTSTVYMELSSLRSEDTAVYYCARPTRMLRSYGMDVWGQGTTVTVSS
VL: not shown
B15: BIIB-12-894 (antibody, V domains shown)
VH: QLQLQESGPGLVKPSETLSLTCTVSGGSISSSSYYWGWIRQPPGKGLEWIGSIYYSGSTYYNPSLKSRVTISVDTSKNQFSLKLSSVTAADTAVYYCAREGAHSSMAGLDVWGQGTMVTVSS
VL: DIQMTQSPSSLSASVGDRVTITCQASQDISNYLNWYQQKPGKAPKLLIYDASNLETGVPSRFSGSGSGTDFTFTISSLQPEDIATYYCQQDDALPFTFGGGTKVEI
B16: BIIB-12-906 (antibody, V domains shown)
VH: B2 VH with R98K, G99S, K101R, Y102H, L103F, H104D, A105Y, Q108R
VL: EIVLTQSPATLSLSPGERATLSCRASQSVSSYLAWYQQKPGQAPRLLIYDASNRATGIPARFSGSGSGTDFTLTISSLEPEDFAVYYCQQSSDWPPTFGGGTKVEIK
B17: BIIB-12-1333 (antibody, V domains shown)
VH: QVQLVQSGAEVKKPGASVKVSCKASGYTFTSYYMVWVRQAPGQGLEWMGIINPSGGSTSYAQKFQGRVTMTRDTSTSTVYMELSSLRSEDTAVYYCARVSRRDYPLAFDIWGQGTMVTVSS
VL: EIVMTQSPATLSVSPGERATLSCRASQSVSSNLAWYQQKPGQAPRLLIYGASTRATGIPARFSGSGSGTEFTLTISSLQSEDFAVYYCQQVNTWPTFGGGTKVEIK
B18: BIIB-12-1326 (antibody, V domains shown)
VH: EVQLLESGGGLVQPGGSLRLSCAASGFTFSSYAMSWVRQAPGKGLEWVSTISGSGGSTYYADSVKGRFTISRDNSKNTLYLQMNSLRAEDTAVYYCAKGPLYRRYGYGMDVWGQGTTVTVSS
VL: EIVLTQSPGTLSLSPGERATLSCRASQSVRSSYLAWYQQKPGQAPRLLIYGASSRATGIPDRFSGSGSGTDFTLTISRLEPEDFAVYYCQQAYSSPLTFGGGTKVEIK
B19: BIIB-12-897 (antibody, V domains shown)
VH: B15 VH with A102R, H103T, S104Y, S105Y, M106G, A107G, G108W, L109F, V111P, M117L
VL: B18 VL with R30S, A92D, Y93G, S94N, S95Y, L97Y
B20: BIIB-12-912 (antibody, V domains shown)
VH: B5 VH with Q101G, Y102R, R103Y, A104G, F105Y
VL: EIVMTQSPATLSVSPGERATLSCRASQSVSSNLAWYQQKPGQAPRLLIYGASTRATGIPARFSGSGSGTEFTLTISSLQSEDFAVYYCQQFHNFPPTFGGGTKVEIK
B21: BIIB-12-1327 (antibody, V domains shown)
VH: QVQLVESGGGVVQPGRSLRLSCAASGFTFSSYGMHWVRQAPGKGLEWVAVISYDGSNKYYADSVKGRFTISRDNSKNTLYLQMNSLRAEDTAVYYCAKLGLARGGGYGMDVWGQGTTVTVSS
VL: B20 VL with L11Q, S12Y, F91Y
B22: BIIB-12-1329 (antibody, V domains shown)
VH: B7 VH with K98R, K100G, S101A, S102G, E103S, G105Y, L106F, N107Q, P108H
VL: B20 VL with L11K, G50S, F91V, H92F, F94W, E105K
B23: BIIB-12-933 (antibody, V domains shown)
VH: QVQLVESGGGVVQPGRSLRLSCAASGFTFSSYGMHWVRQAPGKGLEWVAVISYDGSNKYYADSVKGRFTISRDNSKNTLYLQMNSLRAEDTAVYYCARLPRFTGTAYWGQGTLVTVSS
VL: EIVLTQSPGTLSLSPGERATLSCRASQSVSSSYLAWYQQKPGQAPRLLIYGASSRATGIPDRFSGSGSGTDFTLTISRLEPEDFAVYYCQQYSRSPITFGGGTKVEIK
B24: BIIB-12-1302 (antibody, V domains shown)
VH: QVQLVQSGAEVKKPGASVKVSCKASGYTFTNYGISWVRQAPGQGLEWMGWISAYNGNTNYAQKLQGRVTMTTDTSTSTAYMELRSLRSDDTAVYYCARARSDWRAFDIWGQGTMVTVSS
VL: B20 VL with F91V, H92N, F94L, P96L
B25: BIIB-12-931 (antibody, V domains shown)
VH: QVQLVQSGAEVKKPGASVKVSCKASGYTFTSYYMSWVRQAPGQGLEWMGIINPSGGSTSYAQKFQGRVTMTRDTSTSTVYMELSSLRSEDTAVYYCARDPVQEYGPYYYYMDVWGKGTTVTVSS
VL: B20 VL with F91A, H92A, N93Y, F94W, P96W

Biological target: T1, FX zymogen
Test: BLI

Kd [nM]	Binder
19.8	B1
48.6	B2
10.4	B3
34	B4
45	B5
8.27	B6
22.3	B7
52	B8
25.9	B9
33.8	B10
10.6	B11
23.1	B12
29.3	B13
23.7	B14
38	B15
39.6	B16
16	B17
24.1	B18
68	B19
31.1	B20
38.3	B21
48.5	B22
50.3	B23
64.1	B24
13.5	B25
